# Measured values taken from US20240287172A1 (SCIRHOM, published 2024).
# Where a chain is given by its changes, count along the chain named.
# T1: hiR2-FL-K536-T7 (deletion of K536) (human, UniProt Q6PJF5 1-856)
# T1 construct: single amino acid deletion
# T1 sequence: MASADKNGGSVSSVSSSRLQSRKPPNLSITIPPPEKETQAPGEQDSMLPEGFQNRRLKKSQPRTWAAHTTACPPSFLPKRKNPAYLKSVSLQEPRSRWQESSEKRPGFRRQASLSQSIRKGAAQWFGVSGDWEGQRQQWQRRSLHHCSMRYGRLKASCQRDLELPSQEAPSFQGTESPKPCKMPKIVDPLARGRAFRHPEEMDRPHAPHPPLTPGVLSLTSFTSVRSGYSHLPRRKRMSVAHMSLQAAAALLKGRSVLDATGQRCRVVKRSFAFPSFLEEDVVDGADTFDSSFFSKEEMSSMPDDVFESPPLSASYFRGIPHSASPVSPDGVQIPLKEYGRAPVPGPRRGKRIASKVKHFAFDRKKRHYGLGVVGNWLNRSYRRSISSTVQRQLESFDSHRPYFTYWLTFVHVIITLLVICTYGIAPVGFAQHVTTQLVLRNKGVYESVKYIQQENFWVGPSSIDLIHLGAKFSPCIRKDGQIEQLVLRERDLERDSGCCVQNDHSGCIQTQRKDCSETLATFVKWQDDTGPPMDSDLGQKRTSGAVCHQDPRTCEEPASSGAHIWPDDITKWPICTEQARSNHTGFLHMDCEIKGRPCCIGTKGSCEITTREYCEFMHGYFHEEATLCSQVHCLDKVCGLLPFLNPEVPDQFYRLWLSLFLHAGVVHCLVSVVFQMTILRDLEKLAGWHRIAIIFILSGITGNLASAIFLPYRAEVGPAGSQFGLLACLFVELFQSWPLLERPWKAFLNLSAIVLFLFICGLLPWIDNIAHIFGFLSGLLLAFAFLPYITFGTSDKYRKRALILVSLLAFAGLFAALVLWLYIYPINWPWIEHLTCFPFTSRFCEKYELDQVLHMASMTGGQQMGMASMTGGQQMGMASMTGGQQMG
# B1: antibody 34 (antibody, V domains shown)
# VH: QVTLKESGPGILQPSQTLSLTCSFSGFSLSTFSLGVGWIRQSSGKGLEWLAHIWWDDEKYYNPALKSRLTISKDTSKNQVFLKIANVDAADTATYYCARAYYSKSYYALDYWGQGTSVTVSS
# VL: DIQMTQSPSSLSASLGERVSLTCRASQEISGYLSWLQQKPDGTIKRLIYAASTLDSGVPKRFSGSRSGSDYSLAISSLESEDFADYYCLQYANFPFTFGSGTKLEIK
# notes: mouse IgG, kappa light chain; also called clone #34; purified antibody 34
# B2: antibody 16 (antibody, V domains shown)
# VH: QVTLKESGPGILQPSQTLSLTCSFSGFSLSTFALGVGWIRQPSGRGLEWLAHIWWDDDKYYNPALKSRLTISKDTSKNHVFLKIANVDTADTATYYCARITTYYYGMDYWGQGTSVTVSS
# VL: DIVLSQSPATLSVTPGDSVSLFCRASQSIGNHLHWYQQESHASPRLLIKYASQSISGIPSRFSGSGSGTDFTLSINSVETEDFGMYFCQQSYNWPLTFGAGTKLELK
# notes: mouse IgG, kappa light chain; also called clone #16; purified antibody 16
# B3: antibody 3 (antibody, V domains shown)
# VH: QVTLKESGPGILQPSQTLSLTCSFSGFSLTTFAMGIGWVRQPSGKGLEWLAHIWWDGEKYNNPVLKSRLTISKDTSKNQVFLRIANVDTPDTATYYCARISSIYYIIDNWGQGTSVTVSS
# VL: B2 VL with S5T, D17H, F22S, G30S, H32N, Q38K, E39K, A42E, A51V
# notes: mouse IgG, kappa light chain; also called clone #3; purified antibody 3
# B4: antibody 5 (antibody, V domains shown)
# VH: QVTLKESGPGILQPSQTLSLTCSFSGFSLSTFGMGVGWIRQPSGKGLEWLAHIWWDDEKYYNSALKSRLTISKATSKNQAFLKIANVDTADTATYYCARISNYGSNYWYFNVWGTGTTVTVSS
# VL: QVVLTQSPALMSASPGEKVTMTCSAGSSVSCMYWYQQKPGSSPRVLIYDTSNLASGVPARFTGSGSGTSYSLTISRMEAEDAASYYCQQWNSYPLTFGAGTKLELK
# notes: mouse IgG, kappa light chain; also called clone #5; purified antibody 5
# B5: antibody 42 (antibody, V domains shown)
# VH: B4 VH with F24L, M34R, S63P, A74D, A80V, K83R, S101Q, N111D
# VL: LIVLTQSPAIMSASPGEKVTMTCGATSRISYMFWYQQKPGSSPRVLIYDTSNLASGVPVRFSGSGSGTSYSLTISRVEAEDVATYYCQQWNSYPLTFGAGTKLELK
# notes: mouse IgG, kappa light chain; also called clone #42; purified antibody 42
# B6: antibody 44 (antibody, V domains shown)
# VH: B4 VH with G44E, E58D, S63P, A74D, A80I, A85T, D91E, A98S, S101G, N111D
# VL: QIVLTQSPAVMSASPGEKVTMTCTASSSVYYMYWYQQTPGSSPRLLIYDTSNLASGVPVRFSGSGSGTSYSLTISRMEAEDAATYYCQQWNTYPLTFGAGTKLELK
# notes: mouse IgG, kappa light chain; also called clone #44; purified antibody 44
# B7: antibody 43 (antibody, V domains shown)
# VH: B4 VH with T3A, P42S, H52N, E58D, S63P, A74D, T75A, S101G, N111D
# VL: B5 VL with L1Q, K18R, G24S, T26N, F33Y, V45L, V77M, V82A, Y86N, N91S
# notes: mouse IgG, kappa light chain; also called clone #43; purified antibody 43
# B8: antibody 22 (antibody, V domains shown)
# VH: B4 VH with A80V
# VL: B4 VL with C31Y, S84T
# notes: mouse IgG, kappa light chain; also called clone #22; purified antibody 22
# Molecular target: T1, hiR2-FL-K536-T7 (deletion of K536)
# Test: FACS, MEF-DKO cells, 3 µg/ml
# Source text: In brief, immortalized MEF-DKO-hiR2-FL-G498A-T7, MEF-DKO-hiR2-FL-Q502R-T7, MEF-DKO-hiR2-FL-I509V-T7, MEF-DKO-hiR2-FL-Q512S-T7, MEF-DKO-hiR2-FL-R513E-T7, MEF-DKO-hiR2-FL-K514E-T7, MEF-DKO-hiR2-FL-D515E-T7, MEF-DKO-hiR2-FL-E518S-T7, MEF-DKO-hiR2-FL-T522V-T7, MEF-DKO-hiR2-FL-F523W-T7, MEF-DKO-hiR2-FL-Q527P-T7, MEF-DKO-hiR2-FL-D528I-T7, MEF-DKO-hiR2-FL-D529H-T7, MEF-DKO-hiR2-FL-T530P-T7, MEF-DKO-hiR2-FL-G531S-T7, MEF-DKO-hiR2-FL-P532A-T7, MEF-DKO-hiR2-FL-M534-T7, MEF-DKO-hiR2-FL-D535-T7, MEF-DKO-hiR2-FL-K536-T7, MEF-DKO-hiR2-FL-S537E-T7, MEF-DKO-hiR2-FL-D538L-T7, MEF-DKO-hiR2-FL-L539A-T7, MEF-DKO-hiR2-FL-Q541H-T7, MEF-DKO-hiR2-FL-T544Q-T7, MEF-DKO-hiR2-FL-S545F-T7, MEF-DKO-hiR2-FL-A547S-T7, MEF-DKO-hiR2-FL-T555V-T7, MEF-DKO-hiR2-FL-E557D-T7, MEF-DKO-hiR2-FL-A560S-T7 and MEF-DKO-hiR2-FL-S562E-T7 cells were harvested with 10 mM EDTA in PBS, washed and resuspended in FACS buffer (PBS, 3% FBS, 0.05% sodium azide), and seeded in Nunc U-bottom 96-well plates (Thermo Fisher Scientific, USA) at approximately 3×10⁵ cells per well. To pellet cells and remove supernatants, the plates were centrifuged at 1,500 rpm and 4° C. for 3 minutes. For primary staining, cells were resuspended in 100 μl per well of either FACS buffer alone (controls) or the purified antibodies 3, 5, 16, 22, 34, 42, 43, 44, 48, and 50 of the invention at 3 μg/ml in FACS buffer and incubated on ice for 1 hour. Afterwards, plates were centrifuged at 1,500 rpm and 4° C. for 3 minutes and washed twice with 200 μl per well of FACS buffer. For secondary staining, cells were spun down and resuspended in 100 μl per well of PE-conjugated goat anti-mouse IgG F(ab′)2 detection fragment (Dianova, Germany) diluted 1:100 in FACS buffer. Protected from light, the cell suspensions were incubated on ice for 1 hour. Plates were then centrifuged at 1,500 rpm and 4° C. for 3 minutes and washed three times with 200 μl per well of FACS buffer. Finally, cells were resuspended in 150 μl per well of FACS buffer and analyzed using a BD Accuri™ C6 Plus flow cytometer (Becton Dickinson, Germany).
row,Binder,loss of binding vs wild type [%]
1,B1,≥ 95
2,B2,≥ 95
3,B3,≥ 95
4,B4,≥ 95
5,B5,≥ 95
6,B6,≥ 95
7,B7,≥ 95
8,B8,≥ 95
